Biological target: SARS-CoV-2 S2 (T1076-Q1208) antigen, trimeric S2 fusion-core-based antigen (SARS-CoV-2 prototype (MN908947.3), UniProt P0DTC2, biotin (Biotinylation Kit))
Experiment: BLI
Conditions: both partners purified

B1: anti-SH neutralizing antibody CV3-25 (antibody, V domains shown)
VH: EVQLVESGAEVKKPGESLKISCKGSGYTFTRYWIGWVRQMPGKGLEWMGIIYPGDSDTRYSPSFQGHVTISADKSISTAYLQWNSLKASDTAMYYCARLPQYCSNGVCQRWFDPWGQGTLVTVSS
VL: EIVLTQSPSSVSASVGDRVTITCRASQGISSWLAWYQQKPGKAPKLLIYAASSLQSGVPSRFSGSGSGTDFTLTISSLQPEDFATYYCQQGNSFPYTFGQGTNLEIK
binding result: binds

Reference: paper PMC12052392 (PLOS Pathogens, 2025)
